Reference: patent publication JP2012157315A

Biological target: EGFR (ミズーリ州セントルイス、シグマ社) (UniProt P00533)
Experiment: SPR (BIACORE X), fusion protein amine-coupled to the chip, 10-100 nM EGFR in flow

Kd: 14.7 nM
B1: celB+Lama glama由来の抗EGFRのVHH抗体+Hisタグ融合タンパク質 (VHH, not shown: small tags and cut ends)
chain: QQVGTTADAHPRLTTYKCTSQNGCTRQNTSLVLDAATHFIHKKGTQTSCTNSNGLDTAICPDKQTCADNCVVDGITDYASYGVQTKNDTLTLQQYLQTGNATKSLSPRVYLLAEDGENYSMLKLLNQEFTFDVDASTLVCGMNGALYLSEMEASGGKSSLNQAGAKYGTGYCDAQCYTTPWINGEGNTESVGSCCQEMDIWEANARATGLTPHPCNTTGLYECSGSGCGDSGVCDKAGCGFNPYGLGAKDYYGYGLKVNTNETFTVVTQFLTNDNTTSGQLSEIRRLYIQNGQVIQNAAVTSGGKTVDSITKDFCSGEGSAFNRLGGLEEMGHALGRGMVLALSIWNDAGSFMQWLDGGSAGPCNATEGNPALIEKLYPDTHVKFSKIRWGDIGSTYRHQVQLVESGGGLVQAGDSLRLSCVDSGRDFSDYVMGWFRQAPGKEREFVAAISRNGITTRYADSVKGRFTISRDNDKNTVYLQMNSLKPEDTAVYYCATNSAGTYVSPRSRDYDGWGQGTQVTVSS
